# Assay results from patent US6596687B1, “Cell adhesion inhibitors” (Biogen, Inc., priority 1995, dated 2003).
# Numbered stars: 1 amine (or outer) side, 2 acyl side, 3 side chain; on linkers, the order of the positions; unused ones are H or OH. Square brackets hold non-standard residues; d marks the D form. Peptide text beside a SMILES is read from it. * marks the point of attachment. 2‑MPUPA = 4-(N′-(2-methylphenyl)urea)phenylacetyl, Cc1ccccc1NC(=O)Nc1ccc(CC(=O)*)cc1; X2 = O=C(Cc1ccc(N[*:1])cc1)[*:2]; NH(2-F-phenyl) = Fc1ccccc1N*; 2‑MPUB = not defined here; Piperidide = C1CCN(*)CC1; PhAc = O=C(Cc1ccccc1)*; NHcHex = C1CCC(N*)CC1; CO = O=C([*:1])[*:2]; NHBn = c1ccc(CN*)cc1; NHPh = c1ccc(N*)cc1; Ahx = NCCCCCC(=O)O; Bn = c1ccc(C*)cc1; NHiBu = CC(C)CN*; NHiPr = CC(C)N*
# B1: Compound 338 (peptide)
# peptide: LDVPST
# HELM: PEPTIDE1{[Cc1ccccc1NC(=O)Nc1ccc(CC(=O)[*:2])cc1].L.D.V.P.S.T}$$$$V2.0
# SMILES: Cc1ccccc1NC(=O)Nc1ccc(CC(=O)N[C@@H](CC(C)C)C(=O)N[C@@H](CC(=O)O)C(=O)N[C@H](C(=O)N2CCC[C@H]2C(=O)N[C@@H](CO)C(=O)N[C@H](C(=O)O)[C@@H](C)O)C(C)C)cc1
# B2: Compound 341 (peptide)
# peptide: LPVD
# HELM: PEPTIDE1{[Cc1ccccc1NC(=O)Nc1ccc(CC(=O)[*:2])cc1].L.P.V.D}$$$$V2.0
# SMILES: Cc1ccccc1NC(=O)Nc1ccc(CC(=O)N[C@@H](CC(C)C)C(=O)N2CCC[C@H]2C(=O)N[C@H](C(=O)N[C@@H](CC(=O)O)C(=O)O)C(C)C)cc1
# B3: Compound 168 (peptide)
# peptide: LDVM
# HELM: PEPTIDE1{[O=C(c1ccc2ccccc2n1)[*:2]].L.D.V.M.[CO[*:1]]}$$$$V2.0
# SMILES: COC(=O)[C@H](CCSC)NC(=O)[C@@H](NC(=O)[C@H](CC(=O)O)NC(=O)[C@H](CC(C)C)NC(=O)c1ccc2ccccc2n1)C(C)C
# B4: Compound 186 (peptide)
# peptide: LDVM
# HELM: PEPTIDE1{[O=C(c1ccc2ccccc2n1)[*:2]].L.D.V.M}$$$$V2.0
# SMILES: CSCC[C@H](NC(=O)[C@@H](NC(=O)[C@H](CC(=O)O)NC(=O)[C@H](CC(C)C)NC(=O)c1ccc2ccccc2n1)C(C)C)C(=O)O
# B5: Compound 167 (peptide)
# peptide: LDVM
# HELM: PEPTIDE1{[CC(C)(C)OC(=O)[*:2]].L.D.V.M.[CO[*:1]]}$$$$V2.0
# SMILES: COC(=O)[C@H](CCSC)NC(=O)[C@@H](NC(=O)[C@H](CC(=O)O)NC(=O)[C@H](CC(C)C)NC(=O)OC(C)(C)C)C(C)C
# B6: Compound 315 (peptide)
# peptide: MDVP
# HELM: PEPTIDE1{[Cc1ccccc1NC(=O)Nc1ccc(CC(=O)[*:2])cc1].M.D.V.P}$$$$V2.0
# SMILES: CSCC[C@H](NC(=O)Cc1ccc(NC(=O)Nc2ccccc2C)cc1)C(=O)N[C@@H](CC(=O)O)C(=O)N[C@H](C(=O)N1CCC[C@H]1C(=O)O)C(C)C
# B7: Compound 153 (peptide)
# peptide: FLDV
# HELM: PEPTIDE1{[O=C(c1ccccc1)[*:2]].F.L.D.V}$$$$V2.0
# SMILES: CC(C)C[C@H](NC(=O)[C@H](Cc1ccccc1)NC(=O)c1ccccc1)C(=O)N[C@@H](CC(=O)O)C(=O)N[C@H](C(=O)O)C(C)C
# B8: Compound 339 (peptide)
# peptide: VLPD
# HELM: PEPTIDE1{[Cc1ccccc1NC(=O)Nc1ccc(CC(=O)[*:2])cc1].V.L.P.D}$$$$V2.0
# SMILES: Cc1ccccc1NC(=O)Nc1ccc(CC(=O)N[C@H](C(=O)N[C@@H](CC(C)C)C(=O)N2CCC[C@H]2C(=O)N[C@@H](CC(=O)O)C(=O)O)C(C)C)cc1
# Molecular target: T1, VLA-4 (alpha4beta1 integrin) (UniProt P13612 34-1032; P05556 21-798, limits assumed)
# T1 construct: whole, on cells; also called very late antigen-4; CD49d/CD29
# Assay: Ramos/BSA-CS1 adhesion inhibition
# Conditions: not given
# Description: Following labelling, the cells were washed twice in assay buffer (24 mM TRIS, 137 mM NaCl, 2.7 mM KCl, pH 7.4, containing 0.1 BSA and 2mM glucose) to remove any cations originating from the culture medium. The cells were then resuspended in assay buffer to 4 ×10^6 cells/mL and 2 mM MnCl_2 was added to upregulate VLA4 on the surface of the cells.
# Immediately prior to running the assay, we removed the BSA blocking solution from the 96-well plates and washed the wells with 100 μL of assay buffer. We then added to each well 25 μL of test cell adhesion inhibitory compound at 2×the final concentration and 25 μL of the labelled Ramos cells. […] Each concentration of compound was tested in triplicate. The compound and cells are allowed to incubate for 30 minutes at room temperature.
# Percent binding is calculated by the formula: […]
# T1 sequence (P13612 34-1032 limits assumed, chain 1 of 2): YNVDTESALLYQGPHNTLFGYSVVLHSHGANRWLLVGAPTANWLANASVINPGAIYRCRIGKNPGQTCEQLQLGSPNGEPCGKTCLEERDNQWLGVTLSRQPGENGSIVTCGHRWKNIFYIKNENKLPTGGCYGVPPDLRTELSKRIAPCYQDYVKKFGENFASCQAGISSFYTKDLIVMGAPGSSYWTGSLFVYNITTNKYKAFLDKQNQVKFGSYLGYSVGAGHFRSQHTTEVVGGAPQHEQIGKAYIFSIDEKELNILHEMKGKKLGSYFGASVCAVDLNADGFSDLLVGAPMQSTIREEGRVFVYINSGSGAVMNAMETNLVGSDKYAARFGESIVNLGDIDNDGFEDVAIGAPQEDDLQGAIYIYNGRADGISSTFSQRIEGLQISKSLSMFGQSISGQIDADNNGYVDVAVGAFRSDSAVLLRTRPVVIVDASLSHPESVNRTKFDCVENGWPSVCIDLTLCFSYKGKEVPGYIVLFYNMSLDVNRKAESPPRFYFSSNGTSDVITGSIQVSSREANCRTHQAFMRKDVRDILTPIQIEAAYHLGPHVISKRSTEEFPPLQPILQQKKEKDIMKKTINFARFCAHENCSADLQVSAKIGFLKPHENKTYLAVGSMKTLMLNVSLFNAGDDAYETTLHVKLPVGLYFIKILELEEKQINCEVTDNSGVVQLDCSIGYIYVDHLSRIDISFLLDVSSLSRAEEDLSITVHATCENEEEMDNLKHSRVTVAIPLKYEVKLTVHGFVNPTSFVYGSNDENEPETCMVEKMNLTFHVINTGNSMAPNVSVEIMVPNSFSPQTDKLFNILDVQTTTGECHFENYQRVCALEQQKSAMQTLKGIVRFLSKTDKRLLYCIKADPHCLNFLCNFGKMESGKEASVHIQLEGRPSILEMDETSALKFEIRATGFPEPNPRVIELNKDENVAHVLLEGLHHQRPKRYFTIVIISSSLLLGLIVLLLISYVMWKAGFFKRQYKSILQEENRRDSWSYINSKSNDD
# T1 sequence (P05556 21-798 limits assumed, chain 2 of 2): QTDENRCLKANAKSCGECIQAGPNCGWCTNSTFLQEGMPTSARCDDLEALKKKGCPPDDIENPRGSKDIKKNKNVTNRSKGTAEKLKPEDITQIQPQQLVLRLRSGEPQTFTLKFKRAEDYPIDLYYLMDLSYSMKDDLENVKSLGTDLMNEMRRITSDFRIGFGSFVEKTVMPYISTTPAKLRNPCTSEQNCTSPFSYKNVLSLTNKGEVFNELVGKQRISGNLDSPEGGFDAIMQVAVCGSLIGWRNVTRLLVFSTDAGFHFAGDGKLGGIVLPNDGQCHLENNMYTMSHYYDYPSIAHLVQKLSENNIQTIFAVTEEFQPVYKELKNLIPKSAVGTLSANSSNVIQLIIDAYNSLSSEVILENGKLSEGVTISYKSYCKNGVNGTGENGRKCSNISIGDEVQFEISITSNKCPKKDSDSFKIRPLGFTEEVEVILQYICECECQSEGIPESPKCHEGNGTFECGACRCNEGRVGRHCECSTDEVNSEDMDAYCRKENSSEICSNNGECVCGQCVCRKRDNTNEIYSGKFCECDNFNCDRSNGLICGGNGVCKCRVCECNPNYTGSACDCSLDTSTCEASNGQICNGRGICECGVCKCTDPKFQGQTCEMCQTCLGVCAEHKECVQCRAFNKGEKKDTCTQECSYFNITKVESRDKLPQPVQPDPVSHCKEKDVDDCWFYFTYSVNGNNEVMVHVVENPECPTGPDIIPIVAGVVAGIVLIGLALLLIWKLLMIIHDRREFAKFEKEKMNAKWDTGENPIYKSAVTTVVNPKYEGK
row,Molecule,IC50
1,B1,< 0.05 µM
2,B2,> 10 µM
3,{3‑methoxy‑4‑(N'-phenylurea)phenylacetyl}-MDVP-OH [Compound 2],< 0.05 µM
4,B3,0.05 to 10 µM
5,B4,> 10 µM
6,B5,> 10 µM
7,{2‑MPUPA}-K(Ahx)DVP-OH [Compound 202],0.05 to 10 µM
8,B6,< 0.05 µM
9,{4‑(N'-2-hydroxyphenylurea)phenylacetyl}-MDVP-OH [Compound 146],< 0.05 µM
10,{2‑MPUPA}-LDVPS-OH [Compound 337],< 0.05 µM
11,Ac-FLDV-OH [Compound 152],> 10 µM
12,B7,> 10 µM
13,B8,> 10 µM

# Molecular target: T2, VLA4 (Homo sapiens, UniProt P05556+P13612)
# T2 construct: endogenous in cells; host or cells: Ramos cells
# Assay: Inhibition of VLA4-dependent adhesion of Ramos cells to BSA-CS1
# Format: cell-based
# Conditions: Ramos cells, BSA-CS1 coated wells, 2 mM MnCl2, 30 minutes at room temperature; read-out: IC50
# Outline: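 BCECF-AM-labelled Ramos cells in Tris buffer pH 7.4 with 2 mM MnCl2 were added with compound to wells coated with BSA-conjugated Cys-Tyr-CS1 peptide (1 μg/mL). Cells and compound were incubated for 30 min at room temperature, in triplicate. Inhibition was quantified from bound fluorescence against no-compound controls, with uncoated wells used for nonspecific binding.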
# T2 sequence (P13612 34-1032): as the sequence (P13612 34-1032 limits assumed, chain 1 of 2) above
# T2 sequence (P05556 21-798): as the sequence (P05556 21-798 limits assumed, chain 2 of 2) above
row,Molecule,IC50
1,CC(C)C[C@H](NC(=O)Cc1ccc(NC(=O)Nc2ccccc2)cc1)C(=O)N[C@@H](CC(=O)O)C(=O)N[C@H](C(=O)N1CCC[C@H]1C(=O)NC1CCCCC1)C(C)C [Compound 324] ({NHPh-CO}-[X2]LDVP-NHcHex),0.05 to 10 µM
2,CC(C)C[C@H](NC(=O)Cc1ccc(NC(=O)Nc2ccccc2)cc1)C(=O)N[C@@H](CC(=O)O)C(=O)N[C@H](C(=O)N1CCC[C@H]1C(=O)N1CCCCC1)C(C)C [Compound 325] ({NHPh-CO}-[X2]LDVP-Piperidide),0.05 to 10 µM
3,CC(C)C[C@H](NC(=O)Cc1ccc(NC(=O)Nc2ccccc2)cc1)C(=O)N[C@@H](CC(=O)O)C(=O)N[C@H](C(=O)N1CCC[C@H]1C(=O)NCc1ccccc1)C(C)C [Compound 326] ({NHPh-CO}-[X2]LDVP-NHBn),< 0.05 µM
4,CC(C)C[C@H](NC(=O)Cc1ccc(NC(=O)Nc2ccccc2)cc1)C(=O)N[C@@H](CC(=O)O)C(=O)N[C@H](C(=O)N1CCC[C@H]1C(=O)NC(C)C)C(C)C [Compound 327] ({NHPh-CO}-[X2]LDVP-NHiPr),< 0.05 µM
5,CC(C)CNC(=O)[C@@H]1CCCN1C(=O)[C@@H](NC(=O)[C@H](CC(=O)O)NC(=O)[C@H](CC(C)C)NC(=O)Cc1ccc(NC(=O)Nc2ccccc2)cc1)C(C)C [Compound 328] ({NHPh-CO}-[X2]LDVP-NHiBu),< 0.05 µM
6,CC(C)CNC(=O)[C@H](CC(=O)O)NC(=O)[C@@H]1CCCN1C(=O)CCc1ccc(O)cc1 [Compound 331],> 10 µM
7,CC(C)C[C@H](NC(=O)Cc1ccc(NC(=O)Nc2ccccc2F)cc1)C(=O)N[C@@H](CC(=O)O)C(=O)N[C@H](C(=O)N1CCC[C@H]1C(=O)O)C(C)C [Compound 347] ({NH(2-F-phenyl)-CO}-[X2]LDVP-OH),< 0.05 µM
8,CNC(=O)[C@@H](NC(=O)[C@H](CC(=O)O)NC(=O)[C@H](CC(C)C)N(C)C(=O)CCCc1ccccc1)C(C)C [Compound 348],> 10 µM
9,CNC(=O)[C@@H](NC(=O)[C@H](CC(=O)O)NC(=O)[C@H](CO)NC(=O)Cc1ccccc1)C(C)C [Compound 349] (HELM PEPTIDE1{[O=C(Cc1ccccc1)[*:2]].S.D.V.[CN[*:1]]}$$$$V2.0),> 10 µM
10,CNC(=O)[C@@H](NC(=O)[C@H](CC(=O)O)NC(=O)[C@H](CCCCN)NC(=O)Cc1ccccc1)C(C)C [Compound 350] (HELM PEPTIDE1{[O=C(Cc1ccccc1)[*:2]].K.D.V.[CN[*:1]]}$$$$V2.0),> 10 µM
11,CNC(=O)[C@H](COCc1ccccc1)NC(=O)[C@H](CC(=O)O)NC(=O)[C@H](CC(C)C)NC(=O)Cc1ccccc1 [Compound 352] (PhAc-Leu-Asp-Ser(Bn)-NHMe),> 10 µM
12,CNC(=O)[C@H](COCc1ccccc1)NC(=O)[C@H](CC(=O)O)NC(=O)[C@H](CC(C)C)NC(=O)c1ccc2ccccc2n1 [Compound 353],> 10 µM
13,CCCCNC(=O)[C@@H](NC(=O)[C@H](CC(=O)O)NC(=O)[C@H](CC(C)C)NC(=O)OC(C)(C)C)[C@@H](C)O [Compound 354] (HELM PEPTIDE1{[CC(C)(C)OC(=O)[*:2]].L.D.T.[CCCCN[*:1]]}$$$$V2.0),> 10 µM

# Molecular target: VLA-4 (alpha4beta1 integrin) (UniProt P13612)
# Assay: Ramos/BSA-CS1 adhesion inhibition
# Conditions: not given
# Sequence of VLA-4 (alpha4beta1 integrin) (UniProt P13612) (P13612 34-1032 limits assumed, chain 1 of 2): as the sequence (P13612 34-1032 limits assumed, chain 1 of 2) above
# Sequence of VLA-4 (alpha4beta1 integrin) (UniProt P13612) (P05556 21-798 limits assumed, chain 2 of 2, further chain): as the sequence (P05556 21-798 limits assumed, chain 2 of 2) above
row,Molecule,IC50
1,H-[dP][dV][dD][dL]-{2‑MPUB} (reading uncertain) [Compound 343],> 10 µM
